Here are results for 2 proteins from article PMC3880548 (Biochemistry, 2012).

This series concerns the molecule itself. Nature of the series: SEC.

B1: Shewanella oneidensis cytochrome c peroxidase, wild type (enzyme)
chain: AEPIEVITPAKITEPEKVELGKMLFFEPRLSKSGFISCNSCHNLSTGGVDALPTSIGHHWQEGPINSPTVLNADFMLAQFWDGRASNLKEQAAGPIANPKEMGFTHELATETIASMPAYRARFAKVYGDEKVDIDRLTDAIAAFEKTLVTPNSPFDQYLLGKQDAISGDAKAGYQLFKDKGCVSCHNGPAVGGTMFMKMGLIKPFHTNNPAEGRKGVTGKDADKFVFKVPTLRNIELTYPYFHDGSVWTLEEAVNTMADIQLGQKLTEKETKEMVAFLNSLTGEQPQISLPILPPSNKETPRPVPFATGAK
For the protein B1, the stoichiometry N – broadly, the number of molecules, sites or subunits per partner or assembly – stood at 2.

B2: Shewanella oneidensis cytochrome c peroxidase E321K charge reversal mutant (enzyme)
chain: AEPIEVITPAKITEPEKVELGKMLFFEPRLSKSGFISCNSCHNLSTGGVDALPTSIGHHWQEGPINSPTVLNADFMLAQFWDGRASNLKEQAAGPIANPKEMGFTHELATETIASMPAYRARFAKVYGDEKVDIDRLTDAIAAFEKTLVTPNSPFDQYLLGKQDAISGDAKAGYQLFKDKGCVSCHNGPAVGGTMFMKMGLIKPFHTNNPAEGRKGVTGKDADKFVFKVPTLRNIELTYPYFHDGSVWTLEEAVNTMADIQLGQKLTEKETKEMVAFLNSLTGEQPQISLPILPPSNKKTPRPVPFATGAK
For B2, the “stoichiometry N” value was found to be 2.
